Target: SlCGH1, choloylglycine hydrolase homolog Shew_0681 from Shewanella loihica PV-4 (Shewanella loihica PV-4)
Assay: SEC + other: MALDI-TOF-MS

- stoichiometry N: 2
Substance: SlCGH1, choloylglycine hydrolase homolog Shew_0681 from Shewanella loihica PV-4 (enzyme)
